Measurements published in patent US20160257751A1 (SORRENTO THERAPEUTICS, published 2016).

target: T1, human CD47 (human, UniProt Q08722 19-139, limits assumed, biotinylated in the ELISAs (site not stated)); experiment: SPR (BIACORE)
T1 construct: also called biotinylated CD47; CD47 receptor
T1 sequence (Q08722 19-139 limits assumed): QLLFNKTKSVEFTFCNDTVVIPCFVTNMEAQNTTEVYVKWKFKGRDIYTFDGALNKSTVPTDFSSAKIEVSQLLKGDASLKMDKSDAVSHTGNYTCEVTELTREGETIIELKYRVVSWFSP

Kd [nM]	koff [s⁻¹]	kon [M⁻¹ s⁻¹]	Binder
82.3	0.047	576000	C47A8 (antibody, V domains shown, also called CD47A8) VH: QVQLVQSGAEVKKPGASVKVSCKASGYTFTSYYMHWVRQAPGQGLEWMGIINPSGGSTSYAQKFQGRVTMTRDTSTSTVYMELSSLRSEDTAVYYCARSTLWFSEFDYWGQGTLVTVSS VL: QSVLTQPSSVSASPGQSITISCSGTSSDVGGHNYVSWYQQHPGKAPKLMIYDVTKRPSGVPDRFSGSKSGNTASLTVSGLQAEDEADYYCCSYAGSRVYVFGTGTKLTVL
12.1	0.00129	106000	C47B10 (antibody, V domains shown, lambda light chain (captured with anti-human lambda); also called CD47B10) VH: QVQLVQSGAEVKKPGASVKVSCKASGYTFTSYYMHWVRQAPGQGLEWMGIINPSGGSTSYAQKFQGRVTMTRDTSTSTVYMELSSLRSEDTAVYYCARSTLWFSEFDYWGQGTLVTVSS VL: QSVLTQPASVSGSPGQSISISCTGTSSDVGGHNYVSWYQQHPGKAPKLMIYDVRNRPSGVSNRFSGSKSGSTASLTISGLQTEDEADYYCNSYTGSRTYVFGSGTKLTVL
156	0.034	215000	C47A8-CS (antibody, V domains shown) VH: QVQLVQSGAEVKKPGASVKVSCKASGYTFTSYYMHWVRQAPGQGLEWMGIINPSGGSTSYAQKFQGRVTMTRDTSTSTVYMELSSLRSEDTAVYYCARSTLWFSEFDYWGQGTLVTVSS VL: QSVLTQPSSVSASPGQSITISCSGTSSDVGGHNYVSWYQQHPGKAPKLMIYDVTKRPSGVPDRFSGSKSGNTASLTVSGLQAEDEADYYCSSYAGSRVYVFGTGTKLTVL
156	0.02	129000	C47A8-CQ (antibody, V domains shown) VH: QVQLVQSGAEVKKPGASVKVSCKASGYTFTSYYMHWVRQAPGQGLEWMGIINPSGGSTSYAQKFQGRVTMTRDTSTSTVYMELSSLRSEDTAVYYCARSTLWFSEFDYWGQGTLVTVSS VL: QSVLTQPSSVSASPGQSITISCSGTSSDVGGHNYVSWYQQHPGKAPKLMIYDVTKRPSGVPDRFSGSKSGNTASLTVSGLQAEDEADYYCQSYAGSRVYVFGTGTKLTVL
